Substrate in the series: O=C(/C=C/c1ccc(O)c(O)c1)O[C@@H]1C[C@](O)(C(=O)O)C[C@@H](O)[C@H]1O
The experiment in a line: purified protein. The following applies: 5-CQA as sole substrate (acyl donor and acceptor), 0-30 mM, enzyme from N. benthamiana, optimum pH 6.3 and 39.9 °C, pH and temperature of the Km assay not given.

B1: IbICS (Ipomoea batatas) (protein)
chain: CYSAVFGFGDSLTDAGNLIRLEPDGTVPHMYFPPYGETYFDKPTGRCSDGRLIVDLIAQHYGLPLPPPSIPASLEGDKNRLRAGVNFAVVGSRALDAQFYEQRDIFDTVTNVSMTDQLNWFKELLPSLCSSPHDCKELLDGSLFVLGEFGGNDYTHSLLSGKGINVIRPFIPIVTRAIAQAVHELVELGARTVMIPSVLPLGCAASYLTYYPSPNPDDYDELGCLIWVNEMASYHNQLLQQQLAHVRELHPYANIVFADIYNAAMEVYQGPDTYGFSGGALRACCGGGGPYNFNTSAQCGNEGATACDNPSSYVNWDGYHLTEAAYQCITTGLLEGPYTYPRMKNLCRFDSRKTSRVAQI
As for B1, the Km worked out at 3.5 mM.

(Values after PMC7666189.)
